Results: patent publication US9333268B2, “Methods of treatment with arginine deiminase” (Polaris Group, priority 2012, dated 2016)

What was measured:
[1] = tested on: human pancreatic cancer cell line MIA-PaCa2; experiment: Cell death by PI-FACS (sub-G1 DNA content) and Annexin V-PI flow cytometry; assay type: cell-based
Experimental: (§1) The human pancreatic cancer cell line MIA-PaCa2 was treated in vitro and in vivo with pegylated arginine deiminase (ADI-PEG) alone or in the presence of ChQ. Cell death was measured by propidium iodide (PI)-FACS to determine sub-G1 DNA content, and apoptosis was evaluated by Annexin V-PI flow cytometry. Cleavage of caspase 3 was evaluated by western blots and ELISA. Autophagy was measured by evaluating the expression levels of LC3 and […] p62 (p62) by western blots and ELISA.
(§2) In order to determine if ADI induces apoptosis and autophagy in a caspase dependent manner, cells were incubated with either ADI-PEG or a combination of ADI-PEG and ZVAD-fmk, a pan-caspase inhibitor.
(§3) The levels of p62, LC3B-I, and LC3B-II were measured by western blot analysis in order to examine autophagic flux.
In order to examine whether ChQ alters the amount of apoptotic or non-apoptotic cell death when used in combination with ADI, cells were incubated with ADI-PEG alone or a combination of ADI-PEG and ChQ.

[2] = tested on: human pancreatic cancer cell line MIA-PaCa2; experiment: Western blot/ELISA of caspase 3 cleavage, LC3 and p62; assay type: cell-based; conditions: 72 hours
Experimental: as §1, §2, §3

B1: ADI-PEG: ADI covalently modified with PEG (with or without a linking group) (protein, listed as Mycoplasma hominis)
chain: MSVFDSKFNGIHVYSEIGELETVLVHEPGREIDYITPARLDELLFSAILESHDARKEHQSFVKIMKDRGINVVELTDLVAETYDLASKAAKEEFIETFLEETVPVLTEANKEAVRAFLLSKPTHEMVEFMMSGITKYELGVESENELIVDPMPNLYFTRDPFASVGNGVTIHFMRYIVRRRETLFARFVFRNHPKLVKTPWYYDPAMKMSIEGGDVFIYNNETLVVGVSERTDLDTITLLAKNIKANKEVEFKRIVAINVPKWTNLMHLDTWLTMLDKNKFLYSPIANDVFKFWDYDLVNGGAEPQPQLNGLPLDKLLASIINKEPVLIPIGGAGATEMEIARETNFDGTNYLAIKPGLVIGYDRNEKTNAALKAAGITVLPFHGNQLSLGMGNARCMSMPLSRKDVKW
modifications: PEGylated
- Annexin V depolarization ([1]; 0.3 μg/mL, 72 hours, vs PBS): induced Annexin V depolarization
- number of cells in sub-G0/G1 ([1]; ADI-PEG alone): increased the number of cells in sub-G0/G1
- LC3B conjugation with PE ([2]; dose dependent): LC3B conjugation with PE
- caspase cleavage ([2]; dose dependent): induces caspase cleavage
- apoptosis as measured by caspase 3 cleavage ([2]; ADI-PEG 0.3 μg/mL, western blot): induction of apoptosis
